Assay results reported in US20190284262A1 (Memorial Sloan Kettering, published 2019).

How the values were obtained:
[1] = biological target: T1, HLA-A*02:01 on T2 cells alone (no peptide added) (human); test: flow cytometry, phage on T2 without peptide
T1 construct: TAP-deficient T2 cells without pulsed peptide; negative control target, and the HLA molecule whose stabilisation by peptides is read in the T2 stabilization assay; also called HLA-A*02 molecule; HLA-A2 molecule

[2] = biological target: T2, Foxp3-7 peptide/HLA-A*02:01 complex on the cell surface (human); test: flow cytometry, phage on T2 + Foxp3-7 peptide; secondary only 104, unstained 81.7
T2 construct: also called Foxp3-7/HLA-A2 complex

T2+EW [3] = biological target: T3, T2+EW (Homo sapiens, UniProt A*02:01); test: flow cytometry, phage on T2 + EW peptide; secondary only 310, unstained 93
T3 construct: on the surface of T2 cells; irrelevant control peptide; also called EW peptide/HLA-A*02:01 complex on T2 cells; T2 pulsed with EW peptide

[4] = biological target: T4, R3 (RHAMM-R3) peptide/HLA-A*02:01 complex on T2 cells (human); test: flow cytometry, phage on T2 + R3 peptide (as the table names the samples); secondary only 109, unstained 80.9
T4 construct: Control target of the phage staining of T2 cells; also called T2 cells pulsed with R3 peptide; RHAMM 3 (R3)

[5] = biological target: T1, HLA-A*02:01 on T2 cells alone (no …); test: flow cytometry, phage on T2 cells, no peptide
[6] = biological target: T2, Foxp3-7 peptide/HLA-A*02:01 complex on …; test: flow cytometry, phage on T2 + Foxp3-7 peptide; secondary only 318, unstained 95.8
[7] = biological target: T1, HLA-A*02:01 on T2 cells alone (no …); test: flow cytometry, phage on T2 without peptide; secondary only 320, unstained 91.4
[8] = biological target: T5, 017-mut4 peptide (…)/HLA-A*02:01 complex on T2 cells (human); test: flow cytometry, phage on peptide-loaded T2 cells
T5 construct: Alanine mutant at position 4

[9] = biological target: T6, 017-mut2 peptide (…)/HLA-A*02:01 complex on T2 cells (human); test: flow cytometry, phage on peptide-loaded T2 cells
T6 construct: Alanine mutant at position 2, the anchor position; the peptide may load poorly onto HLA-A2; also called EXT017-mut2

[10] = biological target: T7, 017-mut5 peptide (…)/HLA-A*02:01 complex on T2 cells (human); test: flow cytometry, phage on peptide-loaded T2 cells
T7 construct: Alanine mutant at position 5

[11] = biological target: T8, 017-mut7 peptide (…)/HLA-A*02:01 complex on T2 cells (human); test: flow cytometry, phage on peptide-loaded T2 cells
T8 construct: Alanine mutant at position 7

[12] = biological target: T9, 017-mut3 peptide (…)/HLA-A*02:01 complex on T2 cells (human); test: flow cytometry, phage on peptide-loaded T2 cells
T9 construct: Alanine mutant at position 3

[13] = biological target: T10, 017-mut1 peptide (…)/HLA-A*02:01 complex on T2 cells (human); test: flow cytometry, phage on peptide-loaded T2 cells
T10 construct: Alanine mutant of Foxp3-7 at position 1, pulsed onto T2 cells; also called EXT017-mut1

[14] = biological target: T11, 017-mut8 peptide (…)/HLA-A*02:01 complex on T2 cells (human); test: flow cytometry, phage on peptide-loaded T2 cells
T11 construct: Alanine mutant at position 8; also called TLI-A8

[15] = biological target: T2, Foxp3-7 peptide/HLA-A*02:01 complex on …; test: flow cytometry, phage on peptide-loaded T2 cells
[16] = biological target: T12, 017-mut9 peptide (…)/HLA-A*02:01 complex on T2 cells (human); test: flow cytometry, phage on peptide-loaded T2 cells
T12 construct: Alanine mutant at position 9

[17] = biological target: T2, Foxp3-7 peptide/HLA-A*02:01 complex on …; test: flow cytometry, phage on T2 + Foxp3-7 peptide; secondary only 133, unstained 103
[18] = biological target: T1, HLA-A*02:01 on T2 cells alone (no …); test: flow cytometry, phage on T2 without peptide; secondary only 100, unstained 99.5
T2+EW [19] = biological target: T3, T2+EW; test: flow cytometry, phage on T2 + EW peptide; secondary only 113, unstained 94.7
[20] = biological target: T1, HLA-A*02:01 on T2 cells alone (no …); test: flow cytometry, phage on T2 without peptide; secondary only 121, unstained 106
[21] = biological target: T2, Foxp3-7 peptide/HLA-A*02:01 complex on …; test: flow cytometry, phage on T2 + Foxp3-7 peptide; secondary only 116, unstained 93.8
[22] = biological target: T1, HLA-A*02:01 on T2 cells alone (no …); test: flow cytometry, phage on T2 cells
[23] = biological target: T4, R3 (RHAMM-R3) peptide/HLA-A*02:01 …; test: flow cytometry, phage on T2 + R3 peptide; secondary only 123, unstained 99.8
[24] = biological target: T1, HLA-A*02:01 on T2 cells alone (no …); test: flow cytometry, phage on T2 without peptide; remark: listed apart in the source

Binder | Median:FITC-A [2] | Median:FITC-A [4] | MFI [5] | MFI [8] | MFI [9] | MFI [10] | MFI [11] | MFI [12] | MFI [13] | MFI [14] | MFI [15] | MFI [16] | Median:FITC-A [17] | Median:FITC-A [18] | Median:FITC-A (T2+EW [19]) | binding result [24] | also measured
EXT017-53 scFv phage clone (scFv, full-length scFv with His+HA tags; also called EXT017-53 phage) scFv: NFMLTQPHSVSESPGKTVTISCTRSSGSIASHYVQWYQQRPGSSPTTVIYENNQRPSGVPDRFSGSIDSSSNSASLTISGLKTEDEADYYCQSYDRSNHVVFGGGTKLTVLGSRGGGGSGGGGSGGGGSLEMAQVQLVQSGAEVKKPGASVKVSCKASGYTFTNYYIHWVRQAPGEGLEWMGIIRPSGGNTNYAQKFQGRVTMTRDTSTRTVYMELSSLRSEDTAVYYCARSWNSRDVDSWGQGTLVTVSSTSGQAGQHHHHHHGAYPYDVPDYAS | 2700 | 121 | 89.5 | 95.8 | 95.3 | 98.5 | 98.9 | 5780 | 1100 | 12100 | 25800 | 149 |  |  |  |  | binding result [1]: no binding; Median:FITC-A (T2+EW [3]): 346; Median:FITC-A [6]: 1050; Median:FITC-A [7]: 355
EXT017-17 scFv phage clone (scFv, fusion to the phage coat protein not described; also called EXT017-17 phage; phage clone #17) scFv: QSVLTQPPSVSGAPGQRVTISCTGSSSNIGAGYDVHWYQQLPGTAPKLLIYGNSNRPSGVPDRFSGSKSGTSASLAITGLQAEDEADYYCQSYDSSLSGYVFGTGTKVTVLGSRGGGGSGGGGSGGGGSLEMAEVQLVQSGAEVKKPGSSVKVSCKASGDTFSRYAISWVRQAPGQGLEWMGRIIPIFGTPNYAQKFQGRVTITADEFTSTAYMELSSLRSEDTAMYYCARSIYRYSEYDHWGQGTLVTVSSTSGQAGQHHHHHHGAYPYDVPDYAS | 2590 | 124 | 92.9 | 103 | 99.8 | 98.1 | 97.8 | 741 | 7880 | 3590 | 23600 | 94.7 | 1760 | 151 | 144 |  | Median:FITC-A [20]: 143; Median:FITC-A [21]: 745; binding result [22]: no binding; Median:FITC-A [23]: 146
Clone #10 (scFv, also called EXT017-10; EXT017-10 scFv phage clone) scFv (VL-linker-VH-His/HA tag): QAVLTQPPSASGTPGQRVTISCSGGSSNIGVNPVNWYQQLPGTAPKLLIFANYQRPSGVPDRFSGSKSGTSASLAISGLQSDDEAHYYCSTWDDSLNAWLFGGGTKLTVLGSRGGGGSGGGGSGGGGSLEMAEVQLVQSGAEVKKPGDSLRISCQGSGYSFTSYYISWVRQMPGKGLEWMGNIDPSDSYTNYSPSFQGHVTMSVDKSISTAYLQWSSLKASDIAIYYCVRHGFSNSPRLWFDTWGQGTLVTVSSTSGQAGQHHHHHHGAYPYDVPDYAS |  |  |  |  |  |  |  |  |  |  |  |  | 1130 | 149 | 151 | no binding | 
Clone #24 (scFv, also called EXT017-24; EXT017-24 scFv phage clone) scFv (VL-linker-VH-His/HA tag): QAVLTQPPSVSAAPGQKVTISCSGSSSNIGNNYVSWYQQLPGTAPKLLIYDNNKRPSGLPDRFSGSKSGTSATLGITGLQTGDEADYYCGTWDSSLNAVVFGGGTQLTVLSSRGGGGSGGGGSGGGGSLEMAQVQLVQSGAEVKKPGASVKVSCKASGYTFTNYYIHWVRQAPGQGLEWMGIIRPSGGITNYAQKFQGRVTMTRDTSTSTVYMELSSLRSEDTAVYYCARSWSNKLSWYNDGWGQGTLVTVSSTSGQAGQHHHHHHGAYPYDVPDYAS |  |  |  |  |  |  |  |  |  |  |  |  | 1040 | 146 | 141 | no binding | 
EXT017-20 scFv phage clone (scFv, full-length scFv with His+HA tags; also called EXT017-20 phage) scFv: QSVVTQPPSVSAAPGQKVTISCSGSSSNIGAGYDVHWYQQLPGTAPKLLIYGNSNRPSGVPDRFSGSKSGTSASLAITGLQAEDEADYYCQSYDSSLSGSVFGGGTKLTVLGSRGGGGSGGGGSGGGGSLEMAEVQLVQSGAEVKKPGSSVKVSCKASGGTFSSYAISWVRQAPGQGLEWMGGIIPIFGTANYAQKFQGRVTITADESTSTAYMELSSLRSEDTAVYYCARYSYKYGELDTWGQGTLVTVSSTSGQAGQHHHHHHGAYPYDVPDYAS | 2300 | 128 | 91.3 | 93.7 | 96 | 95 | 94.9 | 96.4 | 4070 | 11100 | 17100 | 95.6 | 1220 | 136 | 139 | no binding | 
EXT017-27 scFv phage clone (scFv, full-length scFv with His+HA tags; also called EXT017-27 phage; phage clone #27) scFv: QAVLTQPPSVSVAPGKTARLTCGGNNIGSESVHWYQQKPGQAPLLVVYDDDDRPSGIPERFSGSNSGNTATLTISRVEAGDEADYYCQVWDRSSDHWFFGGGTKLTVLGSRGGGGSGGGGSGGGGSLEMAQVQLVQSGAEVKKPGASVKVSCKASGYTFTNYYIHWVRQAPGQGLEWMGIIRPSGGITNYAQKFQGRVSMTRDTSTSTVYMELSSLRSEDTAVYYCARSWDYFASNDFWGQGTLVTVSSTSGQAGQHHHHHHGAYPYDVPDYAS | 2820 | 123 | 90.4 | 99 | 98.2 | 95.4 | 96.3 | 2260 | 222 | 6400 | 21200 | 131 |  |  |  |  | Median:FITC-A (T2+EW [3]): 371; Median:FITC-A [6]: 1940; Median:FITC-A [20]: 150; Median:FITC-A [7]: 355; Median:FITC-A [21]: 658; binding result [22]: no binding; Median:FITC-A [23]: 145
Clone #23 (scFv, also called EXT017-23; EXT017-23 scFv phage clone) scFv (VL-linker-VH-His/HA tag): SYELTQPPSVSVAPGQTAWITCGGNNIGSKSVHWYQQKPGQAPILVVYDDSDRPSGIPERVSGSNSGNTATLTISRVEAGDEADYYCQVWDSSSDRWVFGGGTKLTVLGSRGGGGSGGGGSGGGGSLEMAQMQLVQSGAEVKKPGASVKVSCKASGYTFTNYGISWVRQAPGQGLEWMGWISPYNGNTNYAQKLQGRVTMTTDTSTSTAYMELRNLRSDDTAVYYCARYWDSGYAYDEWGQGTLVTVSSTSGQAGQHHHHHHGAYPYDVPDYAS |  |  |  |  |  |  |  |  |  |  |  |  | 982 | 141 | 144 | no binding | 
Clone #5 (scFv, also called EXT017-5; EXT017-5 scFv phage clone) scFv (VL-linker-VH-His/HA tag): QSALTQPPSASGSPGQSVTISCTGTSSDVGGYNYVSWYQQHPGKAPKLMIYEVSKRPSGVPDRFSGSKSGNTASLTVSGLQAEDEADYYCSSYAGSNTHVVFGGGTKLTVLGSRGGGGSGGGGSGGGGSLEMAEVQLVQSGAEVKKPGASVKISCKASRYTFTNYYIHWVRQAPGQGLEWMGIINPSGGSTTYPQNFQGRLTMTRDTSTSTVYMELSSLRSEDTAMYYCARGWSGYDPGDFWGQGTLVTVSSTSGQAGQHHHHHHGAYPYDVPDYAS | 2460 | 129 |  |  |  |  |  |  |  |  |  |  | 2050 | 142 | 149 | no binding | 
